From article PMC13142116, “Development and structure-guided characterization of a novel ACE2-binding macrocyclic peptide” (Journal of Structural Biology: X, 2026)
Positions of bridges follow the written chain, without caps; N, C: chain ends. Non-standard residues stand in square brackets, D forms with d. *: point of attachment. DOTA = O=C(O)CN1CCN(CC(=O)O)CCN(CC(=O)*)CCN(CC(=O)O)CC1

Target: T1, ACE2 on HEK-293 cells transfected with ACE2 (HEK-ACE2) (UniProt Q9BYF1 18-805)
T1 construct: ACE2 expressed in transfected HEK-293 cells; Expression verified earlier by western blotting (Beyer et al., 2023); also called ACE2-transfected HEK cells; source: HEK-293 cells transfected with ACE2, bought: Innoprot; on cells
Test: radioligand binding; saturation binding of the radiopeptide (1-2000 nM, 5 MBq/nmol) on HEK-ACE2 cells, 1 h at 4 °C on ice, DMEM without supplements; non-specific binding determined with 20 µM DX600; n = 3
Conditions: one partner purified

T1 sequence (Q9BYF1 18-805): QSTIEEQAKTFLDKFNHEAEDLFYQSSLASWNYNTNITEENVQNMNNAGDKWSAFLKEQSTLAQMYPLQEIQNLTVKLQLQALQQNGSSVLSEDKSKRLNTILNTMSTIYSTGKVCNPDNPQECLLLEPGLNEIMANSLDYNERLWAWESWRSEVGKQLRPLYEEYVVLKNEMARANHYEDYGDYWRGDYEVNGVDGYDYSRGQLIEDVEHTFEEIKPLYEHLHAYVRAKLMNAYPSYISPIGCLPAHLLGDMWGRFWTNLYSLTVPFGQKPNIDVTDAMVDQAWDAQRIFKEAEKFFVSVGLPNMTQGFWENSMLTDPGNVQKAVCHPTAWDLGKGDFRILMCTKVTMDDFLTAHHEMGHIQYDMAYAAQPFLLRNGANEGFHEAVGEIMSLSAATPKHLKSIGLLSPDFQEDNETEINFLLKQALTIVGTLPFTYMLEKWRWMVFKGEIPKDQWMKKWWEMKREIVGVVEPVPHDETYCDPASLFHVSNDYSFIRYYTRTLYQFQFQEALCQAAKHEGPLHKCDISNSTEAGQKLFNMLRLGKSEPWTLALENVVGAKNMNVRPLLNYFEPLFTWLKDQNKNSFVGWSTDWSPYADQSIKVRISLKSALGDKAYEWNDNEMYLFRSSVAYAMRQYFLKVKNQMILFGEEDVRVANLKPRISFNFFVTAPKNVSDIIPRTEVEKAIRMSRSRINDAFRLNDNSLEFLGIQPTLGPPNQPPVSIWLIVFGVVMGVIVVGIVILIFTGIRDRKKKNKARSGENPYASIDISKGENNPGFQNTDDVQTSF

B1: [67Ga]Ga-DOTA-WJL-63 (peptide)
peptide: Ac-[dY]STQISRGFTRDSRGCGSGSGSK(DOTA)-NH2
modifications: bridge N-16; not fully specified (bridges); also: DOTA loaded with 67Ga
notes: WJL-63 with DOTA on the side chain of the C-terminal lysine; printed in three-letter code; Same peptide as m1 with a DOTA chelator and 67Ga; made on Rink amide resin, so the C-terminus should be an amide as in m1; also called radiolabeled DOTA-WJL-63; WJL-63 radiopeptide; source: synthetic peptide, DOTA conjugated, radiolabeled with gallium-67, used without further purification
For B1, the Kd was 90 nM.
